According to patent US20220048967A1 (published 2022):
Numbered stars: 1 amine (or outer) side, 2 acyl side, 3 side chain; on linkers, the order of the positions; unused ones are H or OH. Square brackets hold non-standard residues; d marks the D form. Side chains are listed from the residue outwards. Ends that are not written are not given here. * marks the point of attachment. C20 diacid = O=C(O)CCCCCCCCCCCCCCCCCCC(=O)*; γGlu = O=C(O)[C@H](CCC(=O)[*:2])N[*:1]; AEEA = NCCOCCOCC(=O)O; Aib = CC(C)(N)C(=O)O

T1: human gastric inhibitory peptide receptor (GIPR) (human, UniProt P48546 22-466)
T1 sequence (looked up): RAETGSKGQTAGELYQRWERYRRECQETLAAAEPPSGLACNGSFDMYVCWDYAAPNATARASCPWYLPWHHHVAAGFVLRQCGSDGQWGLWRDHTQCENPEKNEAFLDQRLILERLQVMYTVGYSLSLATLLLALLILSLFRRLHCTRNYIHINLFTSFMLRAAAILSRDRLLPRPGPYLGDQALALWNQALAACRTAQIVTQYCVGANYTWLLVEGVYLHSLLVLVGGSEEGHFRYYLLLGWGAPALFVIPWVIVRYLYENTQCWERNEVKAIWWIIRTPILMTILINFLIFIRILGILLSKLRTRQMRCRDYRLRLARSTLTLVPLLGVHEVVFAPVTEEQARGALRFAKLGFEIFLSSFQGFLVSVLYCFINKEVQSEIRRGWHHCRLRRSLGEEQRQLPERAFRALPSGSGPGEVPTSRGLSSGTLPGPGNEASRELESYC

B1: Example 359 (peptide)
peptide: XXEGTFTSDYSIXLDXKAQXEFVEYLIAGGPSSGAPPPS
modifications: D-Tyr1, Aib2, αMeL13, Orn16, (2-[2-(2-Amino-ethoxy)-ethoxy]-acetyl)2-(γ-Glu)-CO-(CH2)18-CO2H on K17, Aib20, C-terminal NH2
B2: Example 247 (peptide)
peptide: YXEGTXTSDYSIXLDXKAQXEFIXYLIEGGPSSGAPPPS
modifications: Aib2, αMeF(2F)6, Aib13, Orn16, (2-[2-(2-Amino-ethoxy)-ethoxy]-acetyl)2-(γ-Glu)-CO-(CH2)16-CO2H on K17, Aib20, D-Glu24, C-terminal NH2
B3: Example 250 (peptide)
peptide: YXEGTXTSDYSIXLDXKAQXEFIXYLIEGGPSSGAPPPS
modifications: Aib2, αMeF(2F)6, Aib13, Orn16, (2-[2-(2-Amino-ethoxy)-ethoxy]-acetyl)2-(γ-Glu)-CO-(CH2)18-CO2H on K17, Aib20, D-Glu24, C-terminal NH2
B4: Example 249 (peptide)
peptide: YXEGTXTSDYSIXLDXKAQXEFIXYLIEGGPSSGAPPPS
modifications: Aib2, αMeF(2F)6, Nle13, Orn16, (2-[2-(2-Amino-ethoxy)-ethoxy]-acetyl)2-(γ-Glu)-CO-(CH2)16-CO2H on K17, Aib20, D-Glu24, C-terminal NH2
B5: Example 248 (peptide)
peptide: YXEGTXTSDYSILLDXKAQXEFIXYLIEGGPSSGAPPPS
modifications: Aib2, αMeF(2F)6, Orn16, (2-[2-(2-Amino-ethoxy)-ethoxy]-acetyl)2-(γ-Glu)-CO-(CH2)16-CO2H on K17, Aib20, D-Glu24, C-terminal NH2
B6: Example 336 (peptide)
peptide: XXEGTXTSDYSIXLDKKAQXAFIEYLIEGGPSSGAPPPS
modifications: not fully specified; D-Tyr1, Aib2, αMeF(2F)6, αMeL13, (2-[2-(2-Amino-ethoxy)-ethoxy]-acetyl)2-(γ-Glu)-CO-(CH2)18-CO2H on K17, Aib20, C-terminal NH2
B7: Example 259 (peptide)
peptide: Y[Aib]EGTFTSDYSILLDEK([AEEA-AEEA-γGlu-C20 diacid])AQ[Aib]AFIEYLIEGGPSSGAPPPS-NH2
modifications: N-terminus assumed
SMILES: CC[C@H](C)[C@H](NC(=O)[C@H](CC(C)C)NC(=O)[C@H](Cc1ccc(O)cc1)NC(=O)[C@H](CCC(=O)O)NC(=O)[C@@H](NC(=O)[C@H](Cc1ccccc1)NC(=O)[C@H](C)NC(=O)C(C)(C)NC(=O)[C@H](CCC(N)=O)NC(=O)[C@H](C)NC(=O)[C@H](CCCCNC(=O)COCCOCCNC(=O)COCCOCCNC(=O)CC[C@H](NC(=O)CCCCCCCCCCCCCCCCCCC(=O)O)C(=O)O)NC(=O)[C@H](CCC(=O)O)NC(=O)[C@H](CC(=O)O)NC(=O)[C@H](CC(C)C)NC(=O)[C@H](CC(C)C)NC(=O)[C@@H](NC(=O)[C@H](CO)NC(=O)[C@H](Cc1ccc(O)cc1)NC(=O)[C@H](CC(=O)O)NC(=O)[C@H](CO)NC(=O)[C@@H](NC(=O)[C@H](Cc1ccccc1)NC(=O)[C@@H](NC(=O)CNC(=O)[C@H](CCC(=O)O)NC(=O)C(C)(C)NC(=O)[C@@H](N)Cc1ccc(O)cc1)[C@@H](C)O)[C@@H](C)O)[C@@H](C)CC)[C@@H](C)CC)C(=O)N[C@@H](CCC(=O)O)C(=O)NCC(=O)NCC(=O)N1CCC[C@H]1C(=O)N[C@@H](CO)C(=O)N[C@@H](CO)C(=O)NCC(=O)N[C@@H](C)C(=O)N1CCC[C@H]1C(=O)N1CCC[C@H]1C(=O)N1CCC[C@H]1C(=O)N[C@@H](CO)C(N)=O
B8: Example 264 (peptide)
peptide: YXEGTXTSDXSIXLDXKAQXEFIXXLIEGGPSSG
modifications: Aib2, αMeF(2F)6, 4Pal10, αMeF13 (so in the source), Orn16, (2-[2-(2-Amino-ethoxy)-ethoxy]-acetyl)2-(γ-Glu)-CO-(CH2)16-CO2H on K17, Aib20, D-Glu24, αMeY25, C-terminal NH2
B9: Example 253 (peptide)
peptide: YXEGTFTSDYSILLDKKAQAAFIEYLIEGGPSSGAPPPS
modifications: Aib2, (2-[2-(2-Amino-ethoxy)-ethoxy]-acetyl)2-(γ-Glu)-CO-(CH2)18-CO2H on K17, C-terminal NH2
B10: Example 256 (peptide)
peptide: YXEGTFTSDYSILLDKKAQKAFIEYLIEGGPSSGAPPPS
modifications: Aib2, (2-[2-(2-Amino-ethoxy)-ethoxy]-acetyl)2-(γ-Glu)-CO-(CH2)18-CO2H on K17, C-terminal NH2
B11: Example 257 (peptide)
peptide: YXEGTFTSDYSILLDKKAQRAFIEYLIEGGPSSGAPPPS
modifications: Aib2, (2-[2-(2-Amino-ethoxy)-ethoxy]-acetyl)2-(γ-Glu)-CO-(CH2)18-CO2H on K17, C-terminal NH2
B12: Example 261 (peptide)
peptide: YXEGTFTSDYSILLDKKAQEAFIEYLIEGGPSSGAPPPS
modifications: Aib2, (2-[2-(2-Amino-ethoxy)-ethoxy]-acetyl)2-(γ-Glu)-CO-(CH2)18-CO2H on K17, C-terminal NH2
B13: Example 255 (peptide)
peptide: YXEGTFTSDYSILLDKKAQHAFIEYLIEGGPSSGAPPPS
modifications: Aib2, (2-[2-(2-Amino-ethoxy)-ethoxy]-acetyl)2-(γ-Glu)-CO-(CH2)18-CO2H on K17, C-terminal NH2
B14: Example 263 (peptide)
peptide: YXEGTFTSDYSILLDKKAQSAFIEYLIEGGPSSGAPPPS
modifications: Aib2, (2-[2-(2-Amino-ethoxy)-ethoxy]-acetyl)2-(γ-Glu)-CO-(CH2)18-CO2H on K17, C-terminal NH2
B15: Example 262 (peptide)
peptide: YXEGTFTSDYSILLDKKAQTAFIEYLIEGGPSSGAPPPS
modifications: Aib2, (2-[2-(2-Amino-ethoxy)-ethoxy]-acetyl)2-(γ-Glu)-CO-(CH2)18-CO2H on K17, C-terminal NH2
B16: Example 254 (peptide)
peptide: YXEGTFTSDYSILLDKKAQQAFIEYLIEGGPSSGAPPPS
modifications: Aib2, (2-[2-(2-Amino-ethoxy)-ethoxy]-acetyl)2-(γ-Glu)-CO-(CH2)18-CO2H on K17, C-terminal NH2
B17: Example 260 (peptide)
peptide: Y[Aib]EGTFTSDHSILLDKK([AEEA-AEEA-γGlu-C20 diacid])AQ[Aib]AFIEYLIEGGPSSGAPPPS-NH2
modifications: N-terminus assumed
SMILES: CC[C@H](C)[C@H](NC(=O)[C@H](CC(C)C)NC(=O)[C@H](Cc1ccc(O)cc1)NC(=O)[C@H](CCC(=O)O)NC(=O)[C@@H](NC(=O)[C@H](Cc1ccccc1)NC(=O)[C@H](C)NC(=O)C(C)(C)NC(=O)[C@H](CCC(N)=O)NC(=O)[C@H](C)NC(=O)[C@H](CCCCNC(=O)COCCOCCNC(=O)COCCOCCNC(=O)CC[C@H](NC(=O)CCCCCCCCCCCCCCCCCCC(=O)O)C(=O)O)NC(=O)[C@H](CCCCN)NC(=O)[C@H](CC(=O)O)NC(=O)[C@H](CC(C)C)NC(=O)[C@H](CC(C)C)NC(=O)[C@@H](NC(=O)[C@H](CO)NC(=O)[C@H](Cc1c[nH]cn1)NC(=O)[C@H](CC(=O)O)NC(=O)[C@H](CO)NC(=O)[C@@H](NC(=O)[C@H](Cc1ccccc1)NC(=O)[C@@H](NC(=O)CNC(=O)[C@H](CCC(=O)O)NC(=O)C(C)(C)NC(=O)[C@@H](N)Cc1ccc(O)cc1)[C@@H](C)O)[C@@H](C)O)[C@@H](C)CC)[C@@H](C)CC)C(=O)N[C@@H](CCC(=O)O)C(=O)NCC(=O)NCC(=O)N1CCC[C@H]1C(=O)N[C@@H](CO)C(=O)N[C@@H](CO)C(=O)NCC(=O)N[C@@H](C)C(=O)N1CCC[C@H]1C(=O)N1CCC[C@H]1C(=O)N1CCC[C@H]1C(=O)N[C@@H](CO)C(N)=O
B18: Example 258 (peptide)
peptide: Y[Aib]EGTFTSDYSILLDEK([AEEA-AEEA-γGlu-C20 diacid])AQKAFIEYLIEGGPSSGAPPPS-NH2
modifications: N-terminus assumed
SMILES: CC[C@H](C)[C@H](NC(=O)[C@H](CC(C)C)NC(=O)[C@H](Cc1ccc(O)cc1)NC(=O)[C@H](CCC(=O)O)NC(=O)[C@@H](NC(=O)[C@H](Cc1ccccc1)NC(=O)[C@H](C)NC(=O)[C@H](CCCCN)NC(=O)[C@H](CCC(N)=O)NC(=O)[C@H](C)NC(=O)[C@H](CCCCNC(=O)COCCOCCNC(=O)COCCOCCNC(=O)CC[C@H](NC(=O)CCCCCCCCCCCCCCCCCCC(=O)O)C(=O)O)NC(=O)[C@H](CCC(=O)O)NC(=O)[C@H](CC(=O)O)NC(=O)[C@H](CC(C)C)NC(=O)[C@H](CC(C)C)NC(=O)[C@@H](NC(=O)[C@H](CO)NC(=O)[C@H](Cc1ccc(O)cc1)NC(=O)[C@H](CC(=O)O)NC(=O)[C@H](CO)NC(=O)[C@@H](NC(=O)[C@H](Cc1ccccc1)NC(=O)[C@@H](NC(=O)CNC(=O)[C@H](CCC(=O)O)NC(=O)C(C)(C)NC(=O)[C@@H](N)Cc1ccc(O)cc1)[C@@H](C)O)[C@@H](C)O)[C@@H](C)CC)[C@@H](C)CC)C(=O)N[C@@H](CCC(=O)O)C(=O)NCC(=O)NCC(=O)N1CCC[C@H]1C(=O)N[C@@H](CO)C(=O)N[C@@H](CO)C(=O)NCC(=O)N[C@@H](C)C(=O)N1CCC[C@H]1C(=O)N1CCC[C@H]1C(=O)N1CCC[C@H]1C(=O)N[C@@H](CO)C(N)=O

What was measured:
[1] = molecular target: T1, human gastric inhibitory peptide …; experiment: cell-based or functional assay
[2] = molecular target: human GLP-1 receptor (GLP-1R) (human, UniProt P43220 24-463); experiment: cell-based or functional assay

| Binder | hGIPR cAMP Rel EC50 [1] | hGIPR cAMP EC50 ratio [1] | hGLP1R cAMP EC50 ratio [2] | hGLP1R cAMP Rel EC50 [2] |
| --- | --- | --- | --- | --- |
| B1 | 0.172 nM | – | – | – |
| B2 | 0.0622 nM | 2.58 | 0.614 | 0.0491 nM |
| B3 | 0.0376 nM | 4.27 | 0.985 | 0.0306 nM |
| B4 | 0.0437 nM | 3.84 | 0.778 | 0.0446 nM |
| B5 | 0.0328 nM | 5.08 | 0.8 | 0.0428 nM |
| B6 | 0.0312 nM | – | – | – |
| B7 | 0.257 nM | 0.582 | 0.482 | 0.145 nM |
| B8 | 0.0196 nM | 8.4 | 3.19 | 0.0229 nM |
| B9 | 0.219 nM | 0.684 | 0.638 | 0.109 nM |
| B10 | 0.643 nM | 0.233 | 1.38 | 0.0506 nM |
| B11 | 0.474 nM | 0.316 | 0.895 | 0.0779 nM |
| B12 | 0.16 nM | 0.936 | 0.75 | 0.0948 nM |
| B13 | 0.102 nM | 1.47 | 1.71 | 0.0407 nM |
| B14 | 0.317 nM | 0.473 | 0.906 | 0.0785 nM |
| B15 | 0.13 nM | 1.15 | 0.754 | 0.0943 nM |
| B16 | 0.215 nM | 0.695 | 1.26 | 0.0553 nM |
| B17 | 0.617 nM | 0.242 | 0.171 | 0.408 nM |
| B18 | 2.43 nM | 0.0616 | 0.401 | 0.174 nM |
